In US20250320312A1 (OXITOPE PHARMA B V, published 2025):
Residue numbers refer to the chain shown, from its start. Values belong to the binder of their own block, whether it stands above or below them.

Legend:
Experiment in all cases: scFv ELISA
BSA = BSA (UniProt P02769)
[1] = target: Peptide 1: Biotin-…-[Tyr(PC)]-acid
[2] = target: Peptide 5: Biotin-…-[Tyr(PC)]-acid
[3] = target: T1, Peptide 8: Biotin-AEAAAKEAAAKEAAAKEAAAKAAA-Tyr-acid (N-terminal biotin; C-terminal acid)
T1 construct: Control peptide without PC
T1 peptide: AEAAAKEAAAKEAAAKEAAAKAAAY
In short: (§1)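 Bound scFv was read as OD450 after HRP–anti-V5 detection, TMB development and HCl stop. PPE with BSA was incubated 1 h at RT on BSA-blocked wells coated overnight at 4° C. with peptide, or on streptavidin wells loaded 1 h with biotinylated PC-peptides at 1 μg/mL.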

[4] = target: T2, Peptide 4: Biotin-AGGGGSGGGGSGGGGSAAA-Tyr-acid (N-terminal biotin; C-terminal acid)
T2 construct: Control peptide without PC
T2 peptide: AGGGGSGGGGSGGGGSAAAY
In short: as §1

[5] = target: T3, Peptide 4: Biotin-AGGGGSGGGGSGGGGSAAA-Tyr-acid (N-terminal biotin; C-terminal acid; no PC)
T3 construct: control peptide without PC
T3 peptide: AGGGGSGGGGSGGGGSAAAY
In short: as §1

[6] = target: T4, Peptide 8: Biotin-AEAAAKEAAAKEAAAKEAAAKAAA-Tyr-acid (N-terminal biotin; C-terminal acid; no PC)
T4 construct: control peptide without PC
T4 peptide: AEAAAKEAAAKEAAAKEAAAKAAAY
In short: as §1

Chain of BSA (P02769 25-607 limits assumed): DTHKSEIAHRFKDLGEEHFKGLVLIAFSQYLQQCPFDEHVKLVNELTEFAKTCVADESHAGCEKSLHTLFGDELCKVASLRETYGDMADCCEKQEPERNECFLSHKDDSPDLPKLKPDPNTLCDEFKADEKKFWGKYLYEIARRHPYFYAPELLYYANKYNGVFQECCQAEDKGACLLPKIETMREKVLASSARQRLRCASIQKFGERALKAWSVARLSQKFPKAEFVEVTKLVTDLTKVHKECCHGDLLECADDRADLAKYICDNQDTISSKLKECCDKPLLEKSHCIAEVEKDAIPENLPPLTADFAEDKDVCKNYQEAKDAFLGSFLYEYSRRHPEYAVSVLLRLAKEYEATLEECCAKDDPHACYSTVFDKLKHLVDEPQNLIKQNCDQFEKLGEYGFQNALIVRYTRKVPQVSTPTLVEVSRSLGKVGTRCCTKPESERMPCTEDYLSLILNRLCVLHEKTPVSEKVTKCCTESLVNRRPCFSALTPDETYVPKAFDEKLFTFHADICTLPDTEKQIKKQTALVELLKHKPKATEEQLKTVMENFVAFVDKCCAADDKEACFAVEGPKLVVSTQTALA

OD450 (BSA): 0.07 OD450
OD450 [1]: 0.19 OD450
OD450 [2]: 0.4 OD450
OD450 [3]: 0.05 OD450
OD450 [4]: 0.04 OD450
B3: PcOxP_DB04_G03 (scFv, V domains shown)
VH: EVQLLESGGGLVQPGGSLRLSCAASGFTTSDFYMEWVRQAPGKGLEWVAASRNKANDYTTEYADSVKGRFTISRDNSKNTLYLQMNSLRAEDTAVYYCARDYYGSSYWYFDYWGQGTLVTVSS
VL: DIVMTQSPDSLAVSLGERATINCTASESLYSSKHKVHYLAWYQQKPGQPPKLLIYGASNRNIGVPDRFSGSGSGTDFTLTISSLQAEDVAVYYCAHFYSYPLTFGGGTKVEIK
notes: scFv in periplasmic extract

OD450 (BSA): 0.1 OD450
OD450 [1]: 0.75 OD450
OD450 [2]: 1.3 OD450
OD450 [5]: 0.06 OD450
OD450 [6]: 0.06 OD450
B4: PcOxP_DB04_F06 (scFv, V domains shown)
VH: B3 VH with F27D, T29F, Y112V
VL: DIQMTQSPSSLSASVGDRVTITCTASESLSSSKHKVHYLAWYQQKPGKAPKLLIYGASNRYIGVPSRFSGSGSGTDFTLTISSLQPEDFATYYCAQFYSYPLTFGGGTKVEIK
notes: scFv in periplasmic extract

OD450 (BSA): 0.1 OD450
OD450 [1]: 0.58 OD450
OD450 [2]: 0.87 OD450
OD450 [3]: 0.05 OD450
OD450 [4]: 0.06 OD450
B9: PcOxP_DB04_F03 (scFv, V domains shown)
VH: B3 VH with T29A, N53W, Y102I, Y112V
VL: B3 VL with N61Y, H96Q
notes: scFv in periplasmic extract

OD450 (BSA): 0.08 OD450
OD450 [1]: 0.48 OD450
OD450 [2]: 1.08 OD450
OD450 [3]: 0.06 OD450
OD450 [4]: 0.05 OD450
B11: PcOxP_DB04_G09 (scFv, V domains shown)
VH: B3 VH with F27N, T29F, A55W, Y112V
VL: B3 VL with N61Y, H96Q
notes: scFv in periplasmic extract

OD450 (BSA): 0.09 OD450
OD450 [1]: 0.56 OD450
OD450 [2]: 0.85 OD450
OD450 [3]: 0.07 OD450
OD450 [4]: 0.07 OD450
B13: PcOxP_DB04_F01 (scFv, V domains shown)
VH: B3 VH with T29F, D31P, Y112V
VL: B3 VL with N61Y, H96Q, S99E
notes: scFv in periplasmic extract

More lines, now with the values behind:

B1: PcOxP_DB04_D07 (scFv, V domains shown)
VH: B3 VH with T29F, F32Y, N53W, Y112V
VL: B3 VL with N61Y, H96Q, S99T
notes: scFv in periplasmic extract
OD450 (BSA): 0.08 OD450
OD450 [1]: 1.02 OD450
OD450 [2]: 1.05 OD450
OD450 [3]: 0.05 OD450
OD450 [4]: 0.05 OD450

B2: PcOxP_DB04_B06 (scFv, V domains shown)
VH: B3 VH with T29F, F32A, Y112V
VL: B4 VL with S30Y, S99D
notes: scFv in periplasmic extract
OD450 (BSA): 0.1 OD450
OD450 [1]: 0.66 OD450
OD450 [2]: 1.06 OD450
OD450 [5]: 0.06 OD450
OD450 [6]: 0.06 OD450

B5: PcOxP_DB04_A10 (scFv, V domains shown)
VH: B3 VH with F27D, T29F, A55W, Y112V
VL: B4 VL with S30Y, Y61Q
notes: scFv in periplasmic extract
OD450 (BSA): 0.11 OD450
OD450 [1]: 0.74 OD450
OD450 [2]: 1.61 OD450
OD450 [5]: 0.06 OD450
OD450 [6]: 0.06 OD450

B6: PcOxP_DB04_C08 (scFv, V domains shown)
VH: B3 VH with F27E, T29F, Y112V
VL: B4 VL with S30Y, K35G, S99Q
notes: scFv in periplasmic extract
OD450 (BSA): 0.08 OD450
OD450 [1]: 0.69 OD450
OD450 [2]: 1.07 OD450
OD450 [5]: 0.05 OD450
OD450 [6]: 0.06 OD450

B7: PcOxP_DB04_B08 (scFv, V domains shown)
VH: B3 VH with T29F, F32D, Y112V
VL: B4 VL with S30Y, A57L, Y98F
notes: scFv in periplasmic extract
OD450 (BSA): 0.11 OD450
OD450 [1]: 1.33 OD450
OD450 [2]: 1.56 OD450
OD450 [5]: 0.06 OD450
OD450 [6]: 0.05 OD450

B8: PcOxP_DB04_E12 (scFv, V domains shown)
VH: B3 VH with T29F, Y112V
VL: B3 VL with N61V, H96Q, S99I
notes: scFv in periplasmic extract
OD450 (BSA): 0.07 OD450
OD450 [1]: 1.03 OD450
OD450 [2]: 1.39 OD450
OD450 [3]: 0.05 OD450
OD450 [4]: 0.05 OD450

B10: PcOxP_DB03_H07 (scFv, V domains shown)
VH: B3 VH with T29F, F32Y, Y112V
VL: B4 VL with S30Y, Y61D, A95G
notes: scFv in periplasmic extract
OD450 (BSA): 0.08 OD450
OD450 [1]: 1.91 OD450
OD450 [2]: 1.64 OD450
OD450 [5]: 0.05 OD450
OD450 [6]: 0.05 OD450

B12: PcOxP_DB04_D10 (scFv, V domains shown)
VH: B3 VH with T29G, N53W, Y112V
VL: B3 VL with S32T, N59H, N61Y, H96Q, S99Q
notes: scFv in periplasmic extract
OD450 (BSA): 0.07 OD450
OD450 [1]: 1.14 OD450
OD450 [2]: 1.35 OD450
OD450 [3]: 0.05 OD450
OD450 [4]: 0.05 OD450

B14: PcOxP_DB04_A12 (scFv, V domains shown)
VH: B3 VH with T29F, F32G, A55W, Y112V
VL: B4 VL with S30Y, I62D
notes: scFv in periplasmic extract
OD450 (BSA): 0.12 OD450
OD450 [1]: 0.71 OD450
OD450 [2]: 1.38 OD450
OD450 [5]: 0.07 OD450
OD450 [6]: 0.06 OD450
